The record followed here is patent CN110003338A (BEIJING MIANYI FANGZHOU MEDICINE TECH CO LTD, dated 2019).

The experiment deals with T1, 人OX40 (expressed on cells: transfected 293T cells; HEK::OX40 100B5 cells) (human, UniProt P43489 29-277).
T1 construct: whole, on cells; also called hOX40
T1 sequence (looked up): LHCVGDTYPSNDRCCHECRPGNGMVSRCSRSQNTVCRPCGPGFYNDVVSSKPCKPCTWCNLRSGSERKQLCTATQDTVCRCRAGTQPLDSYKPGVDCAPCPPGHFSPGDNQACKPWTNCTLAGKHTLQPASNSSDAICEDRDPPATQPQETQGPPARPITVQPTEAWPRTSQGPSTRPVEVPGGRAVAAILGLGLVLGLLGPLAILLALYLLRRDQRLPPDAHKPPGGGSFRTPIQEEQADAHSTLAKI
Kind of experiment: Flow cytometry on 293T cells expressing human OX40, antibody 1 µg/mL final, APC anti-mouse IgG Fc.

B1: 抗OX40单克隆抗体4F2 (antibody, V domains shown)
VH: DVQLQESGPGLVKPSQSLSLTCSVTGYSITSGYNWNWIRQFPGNKLEWMGYISYDGSNNYNPSLKNRISITRDTSKNQFFLKLNSVTTEDTATYYCARQGSSGHFYYAMDYWGQGTSVTVSS
VL: DIVMTQAHKFMSTSVGDRVSITCKASQDVSSAVAWYQQKPGQSPKLLIYWASIRHTGVPDRFTGSGSGTDYTLTISSVQAEDLALYYCQQHYSTPWTFGGGTKLEIK
notes: Mouse hybridoma monoclonal antibody (Balb/c x SP2/0); Constant regions are mouse; it was detected with anti-mouse IgG Fc and mIgG1 served as isotype control
Take B1: the binding result is “binds”.

B2: 抗OX40单克隆抗体6A6 (antibody, V domains shown)
VH: EVQLQQSGPELVKPGASVKISCKASGYSFTGYYMNWVKQSPEKSLEWIGEINPSTGGTTYNQKFKAKATLTVDKSSSTAYMQLKSLTSEDSAVYYCARSGLPYYDVDYWGQGTTLTVSS
VL: DIQMTQSPSSLSASLGERVSLTCRASQEISGYLSWLHQKPDGTIKRLIYAASTLDSGVPKRFSGSRSGSDYSLTISSLESEDFADYYCLQYASYPLTFGAGTNLELK
notes: Mouse hybridoma monoclonal antibody
B2: the binding result is recorded as “binds”.
